Reference: US20180364250A1 (COLORADO STATE UNIVERSITY RESEARCH FOUNDATION, published 2018)
Each block holds one binder with its values, some of them ahead of it.

Tests used:
[1] = molecular target: T1, Ubiquitin (free, untagged) (human, UniProt P0CG48 1-76); assay: fluorescence intensity of the Atto532-tagged sensor against free ubiquitin concentration, single-site fit
T1 construct: also called free ubiquitin; unconjugated ubiquitin protein

[2] = molecular target: T1, Ubiquitin (free, untagged); assay: relative fluorescence competition against 5 nM Atto532-tagged ubiquitin on 600 nM tSR
[3] = molecular target: T2, Nedd8 (human, UniProt Q15843 1-76); assay: direct titration, relative fluorescence of 10 nM Alexa488 tSR
T2 construct: also called free Nedd8; Nedd8 protein
T2 sequence (Q15843 1-76 limits assumed): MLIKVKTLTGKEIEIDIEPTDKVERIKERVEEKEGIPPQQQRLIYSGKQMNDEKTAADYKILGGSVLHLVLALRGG

[4] = molecular target: T2, Nedd8; assay: fluorescence intensity, free Nedd8 titrated into Atto532-tIV

B1: Atto532-tagged IsoT^ZnF (S227C) (designed binder)
chain: MPSSHHHHHHSSGLVPRGSHMKQEVQAWDGEVRQVSKHAFSLKQLDNPARIPPSGWKCSKCDMRENLWLNLTDGSILCGRRYFDGCGGNNHAVEHYRETGYPLAVKLGTITPDGADVYSYDEDDMVLDPSLAEHLSHFGIDMLKMQK
modifications: Atto532 fluorophore on the Cys of S227C (the bold C of the 2nd table)
binding result [1]: binds

B4: Atto532-tagged tIV L1 Cys (designed binder)
chain: MGSSHHHHHHSSGLVPRGSHMKQEVQAWDGEVRQVSKHAFSLKQLDNPARIPPSGWKCSKCDMRENLWLNLTDGSILCGRRYFDGSGGNNHAVEHYRETGYPLAVKLGTITPDGADVWSYDEDDMVLDPSLAEHLSHFGIDMLKMQKGSCAAAEEAELDLKAAIQESLREA
modifications: Atto532 fluorophore on the Cys of linker 1 (the bold C of the 2nd table)
notes: Two domains: IsoT^ZnF and Vps27^UIM; also called Atto532-tIV
Kd [4]: 9.4 µM
binding result [1]: binds

Results, then the binder that gave them:

binding result [2]: binds
B2: tSR chimeric polypeptide sensor (designed binder)
chain: MPSSHHHHHHSSGLVPRGSHMTEEEQIAYAMQMSLREAGGGSDLLCKKGCGYYGNPAWQGFCSKCWREEAHKCAAERAAAE
notes: His-tag leader, S5a^UIM, linker, Ruz; also called tSR chimeric peptide universal sensor

binding result [3]: no binding
B3: Alexa488-tagged tSR (designed binder)
chain: B2 chain
modifications: Alexa488 fluorophore, attachment site not stated
notes: also called Alexa488 tSR; fluorophore-tagged tSR
